Test results reported in IntAct's records for PubMed 23108047.

B1: Coiled-coil domain-containing protein 6 (Homo sapiens), Q16204 (parent)
chain: MADSASESDTDGAGGNSSSSAAMQSSCSSTSGGGGGGGGGGGGGKSGGIVISPFRLEELTNRLASLQQENKVLKIELETYKLKCKALQEENRDLRKASVTIQARAEQEEEFISNTLFKKIQALQKEKETLAVNYEKEEEFLTNELSRKLMQLQHEKAELEQHLEQEQEFQVNKLMKKIKKLENDTISKQLTLEQLRREKIDLENTLEQEQEALVNRLWKRMDKLEAEKRILQEKLDQPVSAPPSPRDISMEIDSPENMMRHIRFLKNEVERLKKQLRAAQLQHSEKMAQYLEEERHMREENLRLQRKLQREMERREALCRQLSESESSLEMDDERYFNEMSAQGLRPRTVSSPIPYTPSPSSSRPISPGLSYASHTVGFTPPTSLTRAGMSYYNSPGLHVQHMGTSHGITRPSPRRSNSPDKFKRPTPPPSPNTQTPVQPPPPPPPPPMQPTVPSAATSQPTPSQHSAHPSSQP

Columns and labels:
Conditions in all cases: with fbxw7_human FBXW7, Q969H0
Sequence of fbxw7_human FBXW7, Q969H0 (Q969H0 whole entry): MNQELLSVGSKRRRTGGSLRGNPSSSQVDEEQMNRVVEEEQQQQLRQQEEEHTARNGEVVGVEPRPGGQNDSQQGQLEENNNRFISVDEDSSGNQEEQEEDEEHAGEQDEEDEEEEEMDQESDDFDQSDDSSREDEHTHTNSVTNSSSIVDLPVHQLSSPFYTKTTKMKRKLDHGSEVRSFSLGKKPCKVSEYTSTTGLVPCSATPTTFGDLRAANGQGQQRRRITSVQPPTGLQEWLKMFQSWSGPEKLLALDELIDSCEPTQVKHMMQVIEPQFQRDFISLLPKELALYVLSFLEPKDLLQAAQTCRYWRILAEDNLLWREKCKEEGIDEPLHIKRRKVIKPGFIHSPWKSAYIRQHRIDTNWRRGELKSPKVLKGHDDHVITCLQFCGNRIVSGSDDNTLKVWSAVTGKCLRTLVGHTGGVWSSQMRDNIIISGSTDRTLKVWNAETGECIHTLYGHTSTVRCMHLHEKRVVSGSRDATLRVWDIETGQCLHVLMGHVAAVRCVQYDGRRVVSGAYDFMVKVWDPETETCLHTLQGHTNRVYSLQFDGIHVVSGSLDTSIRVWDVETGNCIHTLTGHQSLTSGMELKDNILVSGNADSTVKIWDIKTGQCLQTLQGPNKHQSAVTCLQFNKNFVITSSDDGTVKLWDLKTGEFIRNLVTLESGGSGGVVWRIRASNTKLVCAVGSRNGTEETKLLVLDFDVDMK

[1] = variants of: B1
[2] = variants of: B1; remark: listed apart in the source
[3] = variants of: B1; remark: listed apart in the source
[4] = variants of: B1; remark: listed apart in the source
[5] = variants of: B1; remark: listed apart in the source

| effect of a mutation on the interaction [1] | effect of a mutation on the interaction [2] | effect of a mutation on the interaction [3] | effect of a mutation on the interaction [4] | effect of a mutation on the interaction [5] | Variant |
| --- | --- | --- | --- | --- | --- |
| disrupting interaction | decreasing interaction | – | – | – | MADSASESDTDGAGGNSSSSAAMQSSCSSTSGGGGGGGGGGGGGKSGGIVISPFRLEELTNRLASLQQENKVLKIELETYKLKCKALQEENRDLRKASVTIQARAEQEEEFISNTLFKKIQALQKEKETLAVNYEKEEEFLTNELSRKLMQLQHEKAELEQHLEQEQEFQVNKLMKKIKKLENDTISKQLTLEQLRREKIDLENTLEQEQEALVNRLWKRMDKLEAEKRILQEKLDQPVSAPPSPRDISMEIDSPENMMRHIRFLKNEVERLKKQLRAAQLQHSEKMAQYLEEERHMREENLRLQRKLQREMERREALCRQLSESESSLEMDDERYFNEMSAQGLRPRTVSSPIPYTPSPSSSRPISPGLSYASHTVGFTPPTSLTRAGMSYYNSPGLHVQHMGTSHGITRPAPRRSNSPDKFKRPTPPPSPNTQTPVQPPPPPPPPPMQPTVPSAATSQPTPSQHSAHPSSQP [S413A] |
| disrupting interaction | – | decreasing interaction | – | – | MADSASESDTDGAGGNSSSSAAMQSSCSSTSGGGGGGGGGGGGGKSGGIVISPFRLEELTNRLASLQQENKVLKIELETYKLKCKALQEENRDLRKASVTIQARAEQEEEFISNTLFKKIQALQKEKETLAVNYEKEEEFLTNELSRKLMQLQHEKAELEQHLEQEQEFQVNKLMKKIKKLENDTISKQLTLEQLRREKIDLENTLEQEQEALVNRLWKRMDKLEAEKRILQEKLDQPVSAPPSPRDISMEIDSPENMMRHIRFLKNEVERLKKQLRAAQLQHSEKMAQYLEEERHMREENLRLQRKLQREMERREALCRQLSESESSLEMDDERYFNEMSAQGLRPRTVSSPIPYTPSPSSSRPISPGLSYASHTVGFTPPTSLTRAGMSYYNSPGLHVQHMGTSHGITRPSPRRSNSPDKFKRPAPPPSPNTQTPVQPPPPPPPPPMQPTVPSAATSQPTPSQHSAHPSSQP [T427A] |

Further lines, the variant ahead of its results:

| Variant | effect of a mutation on the interaction [1] | effect of a mutation on the interaction [2] | effect of a mutation on the interaction [3] | effect of a mutation on the interaction [4] | effect of a mutation on the interaction [5] |
| --- | --- | --- | --- | --- | --- |
| MADSASESDTDGAGGNSSSSAAMQSSCSSTSGGGGGGGGGGGGGKSGGIVISPFRLEELTNRLASLQQENKVLKIELETYKLKCKALQEENRDLRKASVTIQARAEQEEEFISNTLFKKIQALQKEKETLAVNYEKEEEFLTNELSRKLMQLQHEKAELEQHLEQEQEFQVNKLMKKIKKLENDTISKQLTLEQLRREKIDLENTLEQEQEALVNRLWKRMDKLEAEKRILQEKLDQPVSAPPSPRDISMEIDSPENMMRHIRFLKNEVERLKKQLRAAQLQHSEKMAQYLEEERHMREENLRLQRKLQREMERREALCRQLSESESSLEMDDERYFNEMSAQGLRPRTVSSPIPYTPAPSSSRPISPGLSYASHTVGFTPPTSLTRAGMSYYNSPGLHVQHMGTSHGITRPSPRRSNSPDKFKRPTPPPSPNTQTPVQPPPPPPPPPMQPTVPSAATSQPTPSQHSAHPSSQP [S359A] | disrupting interaction | – | – | decreasing interaction | – |
| MADSASESDTDGAGGNSSSSAAMQSSCSSTSGGGGGGGGGGGGGKSGGIVISPFRLEELTNRLASLQQENKVLKIELETYKLKCKALQEENRDLRKASVTIQARAEQEEEFISNTLFKKIQALQKEKETLAVNYEKEEEFLTNELSRKLMQLQHEKAELEQHLEQEQEFQVNKLMKKIKKLENDTISKQLTLEQLRREKIDLENTLEQEQEALVNRLWKRMDKLEAEKRILQEKLDQPVSAPPSPRDISMEIDSPENMMRHIRFLKNEVERLKKQLRAAQLQHSEKMAQYLEEERHMREENLRLQRKLQREMERREALCRQLSESESSLEMDDERYFNEMSAQGLRPRTVSSPIPYTPSPSSSRPISPGLSYASHTVGFTPPTSLTRAGMSYYNSPGLHVQHMGTSHGITRPSPRRSNSPDKFKRPTPPPSPNAQTPVQPPPPPPPPPMQPTVPSAATSQPTPSQHSAHPSSQP [T434A] | – | – | – | – | disrupting interaction |
